From patent US20220047716A1 (SUTRO BIOPHARMA, published 2022)

Legend:
[1] = target: human folate receptor beta (hFolRβ) (human, UniProt P14207 17-230); test: cell-based or functional assay
[2] = target: human folate receptor alpha (hFolRα) on cells (human, UniProt P15328 25-234); test: cell-based or functional assay
Chain of human folate receptor alpha (hFolRα) on cells (P15328 25-234 limits assumed): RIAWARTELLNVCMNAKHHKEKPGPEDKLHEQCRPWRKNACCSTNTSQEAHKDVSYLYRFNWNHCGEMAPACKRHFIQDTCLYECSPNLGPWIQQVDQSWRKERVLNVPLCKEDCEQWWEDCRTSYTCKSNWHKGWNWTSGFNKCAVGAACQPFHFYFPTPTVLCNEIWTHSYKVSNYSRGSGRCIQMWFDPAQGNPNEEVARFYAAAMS

Chain of human folate receptor beta (hFolRβ) (P14207 17-230): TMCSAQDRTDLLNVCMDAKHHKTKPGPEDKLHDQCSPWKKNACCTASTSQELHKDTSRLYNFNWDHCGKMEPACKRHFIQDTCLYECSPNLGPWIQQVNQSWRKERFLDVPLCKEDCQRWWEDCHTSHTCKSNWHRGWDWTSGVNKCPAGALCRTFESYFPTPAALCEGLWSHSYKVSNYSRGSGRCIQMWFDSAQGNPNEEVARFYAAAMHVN

B1: ADC Molecule 4 (1848-H01 FolRα antibody, Y180/F404, Conjugate P) (antibody, V domains shown)
VH: EVQLVESGGGLVQPGGSLRLSCAASGFNIRTQSIHWVRQAPGKGLEWIGDIFPIDGITDYADSVKGRFTISADTSKNTAYLQMNSLRAEDTAVYYCARGSWSWPSGMDYYLDYWGQGTLVTVSS
VL: not shown
modifications: non-natural amino acids at HC-Y180 and HC-F404, each conjugated to the cleavable hemiasterlin linker-drug (Conjugate P); both sites lie in the constant region, outside the VH entry
- cytotoxic activity on 293T cells expressing FolRβ, EC50 [1]: ~100 nM
- cytotoxic activity on 293T cells expressing FolRα, EC50 [2]: < 10 nM
